Experimental data as given in patent KR20160085666A (dated 2016).

B1: 항 c-Met 항체 (L3-1Y/IgG2), GSKO301 세포 생산 (antibody, V domains shown)
VH: EVQLVESGGGLVQPGGSLRLSCAASGFTFTDYYMSWVRQAPGKGLEWLGFIRNKANGYTTEYSASVKGRFTISRDNSKNTLYLQMNSLRAEDTAVYYCARDNWFAYWGQGTLVTVSS
VL: DIQMTQSPSSLSASVGDRVTITCKSSQSLLASGNQNNYLAWYQQKPGKAPKMLIIWASTRVSGVPSRFSGSGSGTDFTLTISSLQPEDFATYYCQQSYSRPYTFGQGTKVEIKR
notes: Produced in GS-KO CHO cells that express the antibody only (GSKO301); also called STD (12A37); GSKO301 생산 항체
B2: 항 c-Met 항체 (L3-1Y/IgG2), GSKO301 GOT1 세포 생산 (antibody, V domains shown)
VH: EVQLVESGGGLVQPGGSLRLSCAASGFTFTDYYMSWVRQAPGKGLEWLGFIRNKANGYTTEYSASVKGRFTISRDNSKNTLYLQMNSLRAEDTAVYYCARDNWFAYWGQGTLVTVSS
VL: DIQMTQSPSSLSASVGDRVTITCKSSQSLLASGNQNNYLAWYQQKPGKAPKMLIIWASTRVSGVPSRFSGSGSGTDFTLTISSLQPEDFATYYCQQSYSRPYTFGQGTKVEIKR
notes: Produced in GS-KO CHO cells that express the antibody and overexpress GOT1 (GSKO301 GOT1); also called GSKO301 GOT1 생산 항체; anti-c-Met antibody L3-1Y/IgG2

Molecular target: T1, c-Met-Fc (#358-MT/CF, R&D Systems) (UniProt P08581 25-932)
T1 construct: Bought reagent; also called 항원(c-Met); not shown: Fc part of the bought fusion
T1 sequence (P08581 25-932 limits assumed): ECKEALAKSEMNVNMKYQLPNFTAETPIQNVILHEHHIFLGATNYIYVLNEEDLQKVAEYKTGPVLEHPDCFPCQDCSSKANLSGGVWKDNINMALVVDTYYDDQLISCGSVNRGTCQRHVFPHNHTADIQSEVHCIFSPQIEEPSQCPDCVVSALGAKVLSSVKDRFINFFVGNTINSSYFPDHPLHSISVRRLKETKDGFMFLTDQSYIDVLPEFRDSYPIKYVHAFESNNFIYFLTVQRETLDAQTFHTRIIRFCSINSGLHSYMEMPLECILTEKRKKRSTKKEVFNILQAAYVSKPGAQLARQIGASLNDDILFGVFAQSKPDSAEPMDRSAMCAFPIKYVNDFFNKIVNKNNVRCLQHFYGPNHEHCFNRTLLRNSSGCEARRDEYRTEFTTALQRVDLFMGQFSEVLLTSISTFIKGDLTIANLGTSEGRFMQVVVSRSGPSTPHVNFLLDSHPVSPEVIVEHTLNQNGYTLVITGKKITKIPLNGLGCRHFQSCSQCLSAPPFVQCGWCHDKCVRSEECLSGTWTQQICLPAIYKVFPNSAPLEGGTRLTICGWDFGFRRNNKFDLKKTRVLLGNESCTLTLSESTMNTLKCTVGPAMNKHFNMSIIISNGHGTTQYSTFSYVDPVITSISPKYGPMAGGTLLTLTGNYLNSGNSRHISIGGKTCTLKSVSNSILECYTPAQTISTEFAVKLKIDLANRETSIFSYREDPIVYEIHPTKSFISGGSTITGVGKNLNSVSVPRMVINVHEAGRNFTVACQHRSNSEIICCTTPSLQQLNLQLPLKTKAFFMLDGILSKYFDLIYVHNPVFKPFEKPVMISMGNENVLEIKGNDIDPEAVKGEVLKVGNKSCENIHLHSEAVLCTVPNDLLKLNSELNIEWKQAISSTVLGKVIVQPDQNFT
Experiment: SPR, Biacore T100; antibody captured on human Fab binder on a CM5 chip, c-Met-Fc injected at various concentrations

Binder	Kd [nM]
B1	0.057
B2	0.076
